Data on twelve compounds can be found in paper PMC6249252, “COMP and TSP-4 interact specifically with the novel GXKGHR motif only found in fibrillar collagens” (Scientific Reports, 2018).

Like-named read-outs stand apart in the source and are kept apart here.

Series [1] concerns the target T1, COMP (Homo sapiens, UniProt P49747). Put plainly: ELISA-style binding assay, COMP on coated collagen model peptides / collagen. As to conditions: for effect of additive in interaction buffer on COMP binding to peptide 5: peptide 5 coated, COMP in pure TBS-T with the indicated chemical compound, compared to pure TBS (Fig. 3b); for Kd: peptide or collagen coated at 10 µg/ml (500 ng per well) on ELISA plate, pentameric COMP at indicated concentrations, 1 h, room temperature, TBS-T with 0.25% BSA, anti-COMP antibody, four-parameter logistic fit, triplicates, read-out: Apparent KD. The procedure: (§1) For ELISA-style binding assays, rat tail collagen I (BD Bioscience) or the indicated collagen model peptides were diluted in TBS and coated at 10 µg/ml (500 ng per well) overnight at 4 °C. Further steps were performed at room temperature. After washing with TBS-T (TBS containing 0.05% (vol/vol) Tween-20), plates were blocked for 1 h with 1% (wt/vol) BSA in TBS. Strep-tagged COMP was added at indicated concentrations in TBS-T containing 0.25% (wt/vol) BSA) and incubated for 1 h. For assays with addition of cations pure TBS-T was used as interaction buffer. After washing away unbound protein with TBS-T, bound COMP was detected with a 1:3000 dilution of a specific polyclonal antibody against bovine COMP in interaction buffer. The antibody was raised in rabbit against bovine COMP purified from articular cartilage and characterised before in various studies[46]–[48]. The TSP-4 antibody was raised in guinea pigs and was previously described and characterised[30],[49]. The primary antibodies were detected with an HRP–conjugated swine anti-rabbit (DAKO, P0399) or rabbit anti-guinea pig antibody (Sigma, A5545). Bound secondary antibodies were visualised with tetramethylbenzidine as substrate, the reaction was either measured directly at 370 nm or stopped with 10% H2SO4 and measured at 450 nm. Data were analysed using Origin 2017 and fitted using a four-parameter logistic model.
(An ELISA detects its analyte on a solid surface through an enzyme-linked reagent.)

Series [2] in a line: Dynamic light scattering of COMP solution with ZnCl. It is filed as physicochemical. As to conditions: 20 °C, cumulant radius over time. The procedure:
Dynamic light scattering (DLS) was measured with a Wyatt DynaPro Nanostar using the disposable cuvettes (UVettes, Eppendorf). Data was acquired as a mean of 5 acquisitions, measured each for 5 s at a fixed temperature of 20 °C. The laser was set to auto-attenuation and the data analysed with the Dynamics software from Wyatt. Graph show the cumulant radius versus time for COMP with indicated ZnCl2 concentrations.

The nature of series [3]: CD spectroscopy thermal unfolding of collagen model peptides. It is filed as physicochemical. The note with it: CD spectroscopy at 210 nm, heated at 1 °C/min, approx. 0.1 mg/ml, 1 mm cell, 4 parameter logistic fit. The method, then:
CD spectra of the col2p5 peptide and its derivatives were measured using a Jasco J–715 equipped with a peltier-element cuvette cooler. The samples were heated at 1 °C/min in a 1 mm path length quartz cell at approx. 0.1 mg/ml. Thermal unfolding was measured in a range between 20 °C and 70–90 °C and specific ellipticity recorded at 210 nm ever 1 °C. Additionally, every 5 °C far-UV spectra (200–250 nm) were recorded in triplicates. Data was fitted with a 4 parameter logistic fit using Origin 2017[45].

For another series, the target named is TSP-4 (UniProt P35443). Put plainly: ELISA-style binding assay, TSP-4 on coated GVKGHR foldon construct. As to conditions: GVKGHR foldon construct coated to ELISA plate, incubated with TSP4, anti-TSP4 antibody; fitted; triplicates. The method, then:
as §1

Series [4] deals with T1, COMP. As to conditions: read-out: dissociation constant for COMP reported for collagen II; cited from earlier work. The procedure: To elucidate the binding site of COMP on the collagen II helix we incubated pentameric COMP at 200 nM concentration with our generated collagen II foldon library (Fig. 2). […] To confirm our finding and get proper binding affinities we coated the peptide 5 and incubated it with indicated concentration of COMP (Fig. 3a). The dissociation constant for COMP and pep5 (19.3 ± 12 nM) was slightly higher than reported for collagen II (1.72 ± 0.16 nM)[10]. ...

T1 sequence (P49747 21-757): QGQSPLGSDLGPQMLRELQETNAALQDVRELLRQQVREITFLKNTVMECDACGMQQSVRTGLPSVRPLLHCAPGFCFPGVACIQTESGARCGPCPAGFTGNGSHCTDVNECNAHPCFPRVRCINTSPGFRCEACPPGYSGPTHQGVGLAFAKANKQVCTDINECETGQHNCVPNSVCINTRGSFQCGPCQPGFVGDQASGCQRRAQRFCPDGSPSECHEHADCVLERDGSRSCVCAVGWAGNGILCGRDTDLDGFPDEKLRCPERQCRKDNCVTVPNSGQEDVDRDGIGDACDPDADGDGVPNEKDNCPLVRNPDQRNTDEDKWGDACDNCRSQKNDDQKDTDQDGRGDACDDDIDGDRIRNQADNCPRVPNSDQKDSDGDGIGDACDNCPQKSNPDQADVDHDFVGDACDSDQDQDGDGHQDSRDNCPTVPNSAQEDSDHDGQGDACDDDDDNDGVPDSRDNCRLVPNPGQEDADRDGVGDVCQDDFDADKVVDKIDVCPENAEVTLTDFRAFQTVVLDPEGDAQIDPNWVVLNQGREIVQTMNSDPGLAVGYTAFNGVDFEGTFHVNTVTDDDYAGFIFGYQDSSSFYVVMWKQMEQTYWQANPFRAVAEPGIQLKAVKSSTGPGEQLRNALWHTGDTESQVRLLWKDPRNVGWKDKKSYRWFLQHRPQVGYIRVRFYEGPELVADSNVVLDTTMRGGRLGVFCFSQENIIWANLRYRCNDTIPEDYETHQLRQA
Chain of TSP-4 (P35443 27-961): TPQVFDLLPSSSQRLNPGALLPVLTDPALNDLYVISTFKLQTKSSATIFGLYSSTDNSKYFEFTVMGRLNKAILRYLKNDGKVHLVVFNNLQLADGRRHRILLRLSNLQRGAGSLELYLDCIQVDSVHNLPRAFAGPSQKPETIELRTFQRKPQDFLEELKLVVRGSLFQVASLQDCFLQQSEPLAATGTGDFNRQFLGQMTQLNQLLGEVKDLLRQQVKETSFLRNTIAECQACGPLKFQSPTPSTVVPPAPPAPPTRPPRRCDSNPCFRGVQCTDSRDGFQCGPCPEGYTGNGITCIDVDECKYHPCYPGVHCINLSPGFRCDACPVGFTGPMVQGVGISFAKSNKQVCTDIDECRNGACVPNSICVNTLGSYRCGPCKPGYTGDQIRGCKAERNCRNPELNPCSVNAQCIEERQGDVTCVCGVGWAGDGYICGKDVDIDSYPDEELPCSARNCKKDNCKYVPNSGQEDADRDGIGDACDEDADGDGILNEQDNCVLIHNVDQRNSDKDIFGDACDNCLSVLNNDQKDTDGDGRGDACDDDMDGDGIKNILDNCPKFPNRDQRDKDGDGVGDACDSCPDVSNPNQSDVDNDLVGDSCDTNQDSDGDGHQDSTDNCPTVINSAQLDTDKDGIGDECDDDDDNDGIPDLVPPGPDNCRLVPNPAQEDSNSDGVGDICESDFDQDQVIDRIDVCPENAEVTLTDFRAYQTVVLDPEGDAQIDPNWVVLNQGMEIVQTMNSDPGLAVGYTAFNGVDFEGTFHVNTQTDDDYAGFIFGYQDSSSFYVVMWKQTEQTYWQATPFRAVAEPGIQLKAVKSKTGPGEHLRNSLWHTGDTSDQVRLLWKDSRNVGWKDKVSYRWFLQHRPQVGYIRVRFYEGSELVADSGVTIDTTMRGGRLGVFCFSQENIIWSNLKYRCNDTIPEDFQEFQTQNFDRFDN

Consider `O=C(O)CN(CCN(CC(=O)O)CC(=O)O)CC(=O)O` [EDTA, reference compound], for which the “effect of additive in interaction buffer on COMP binding to peptide 5” value (“effect of additive in interaction buffer” for short) at COMP [1] is listed as “reduced the binding significantly”.

`c1cnc2c(c1)ccc1cccnc12` [phenanthroline, 1,10-phenanthroline, reference compound]: the “effect of additive in interaction buffer” value on COMP [1] was “does not reduce the binding compared to pure TBS”.

Turning to `[Cl-].[Cl-].[Zn+2]` [zinc, reference compound], on COMP [1], the “effect of additive in interaction buffer” value is on record as “increased the affinity towards the peptides”.

“COMP: recombinant pentameric cartilage oligomeric matrix protein, Strep-tagged, expressed in HEK293 (EBNA) cells”: the “hydrodynamic radius via DLS (aggregation)” value is “could not detect any difference” in series [2] (0.0 mM versus 0.1 mM ZnCl) and “starts to aggregate dramatically” in series [2] (addition of 1 mM ZnCl).

For “GARGFPGTPGLPGVKGHRGYPGLDGAK [peptide 5, E. coli expressed collagen II library peptide in NStrep-(GPP)6-GUEST-(GPP)6-foldon context]”, the Kd at COMP [1] turned out to be 19.3 ± 12.4 nM. In series [3], the “Melting point (°C)” value was found to be 36.1 ± 0.5 °C.

“GEAGEPGERGLKGHRGFTGLQGLPGPP [peptide 52, library peptide with the C-terminal GLKGHR motif of collagen II, foldon context]”: the Kd on COMP [1] turned out to be 4.1 ± 0.8 nM.

As to GLPGPKGHR, the Kd in the series with COMP [1] was 2.26 ± 0.39 nM. Further, the “Melting point (°C)” value in series [3] was 52.5 ± 0.6 °C.

As for GLPGVKGHP, the “Melting point (°C)” value in series [3] worked out at 47.9 ± 0.4 °C.

As for “GLPGVKGHR [unique region of pep5 in N-Strep-(GPP)6-GUEST-(GPP)6-foldon context]”, the “COMP binding to minimal motif peptides (ELISA signal)” value on COMP [1] (COMP at 400 nM, one-point measurements (Fig. 4a), or at indicated concentrations (Fig. 4b)) is listed as “sufficient for binding”. Also, in series [3], the “Melting point (°C)” value was 48.2 ± 0.6 °C.

GLPGVPGHR: in series [3], the “Melting point (°C)” value worked out at 51.1 ± 0.3 °C.

For GVKGHR, the Kd on TSP-4 worked out at 0.56 ± 0.05 nM; with COMP [1] it was 1.61 ± 0.29 nM. In addition, the “Melting point (°C)” value in series [3] stood at 56.5 ± 0.6 °C.

For the compound “collagen II: collagen II, literature value for COMP binding”, the Kd with COMP [4] is 1.72 ± 0.16 nM.
